Assay [1] concerns the target 1GS mGRFT (GRFT with GS inserted between Ser16 and Gly17) (Griffithsia sp.) (UniProt P84801). Description: AUC.
The target in assay [2] is HIV-1 glycoprotein gp120 (HIV-1) (UniProt P04578). Description: ITC.

Results on 2 substances are retold here after publication PMC3399781.

In assay [1], “1GS mGRFT (GRFT with GS inserted between Ser16 and Gly17) (from UniProt P84801 1-121) (natural protein)” came in with a dissociation constant (Kd) of 120 µM.

In the case of “1GS-S mGRFT (L2S variant of 1GS) (from UniProt P84801 1-121) (natural protein)”, in assay [2], the Kd came out at 0.112 µM and the dH is -35.5 kcal/mol.
